Results reported in patent US20200199204A1 (UNITED STATES OF AMERICA AS REPRESENTED BY THE SECRETARY …, published 2020).

Assays:
Assay in all cases: cell-based or functional assay
[1] = target: HIV-1 Env of Q842.d12 (HIV-1)
[2] = target: HIV-1 Env of UG037.8 (HIV-1)
[3] = target: HIV-1 Env of MB539.2B7 (HIV-1)
[4] = target: HIV-1 Env of ZM197.7 (HIV-1)
[5] = target: HIV-1 Env of ZM249.1 (HIV-1)
[6] = target: HIV-1 Env of Q23.17 (HIV-1)
[7] = target: HIV-1 Env of SC422.8 (HIV-1)
[8] = target: HIV-1 Env of RW020.2 (HIV-1)
[9] = target: HIV-1 Env of DU156.12 (HIV-1)
[10] = target: HIV-1 Env of AC10.29 (HIV-1)
[11] = target: HIV-1 Env of CAAN.A2 (HIV-1)
[12] = target: HIV-1 Env of KER2018.11 (HIV-1)
[13] = target: HIV-1 Env of C1080.c3 (HIV-1)
[14] = target: HIV-1 Env of WITO.33 (HIV-1)
[15] = target: HIV-1 Env of QH0692.42 (HIV-1)
[16] = target: HIV-1 Env of CM244.ec1 (HIV-1)
[17] = target: HIV-1 Env of 6535.3 (HIV-1)
[18] = target: HIV-1 Env of TRJO.58 (HIV-1)
[19] = target: HIV-1 Env of Q461.e2 (HIV-1)
[20] = target: HIV-1 Env of DU422.01 (HIV-1)
[21] = target: HIV-1 Env of 0260.v5.c36 (HIV-1)
[22] = target: HIV-1 Env of MB201 (HIV-1)
[23] = target: HIV-1 Env of ZM214.15 (HIV-1)
[24] = target: HIV-1 Env of KER2008.12 (HIV-1)
[25] = target: HIV-1 Env of ZM109.4 (HIV-1)
[26] = target: HIV-1 Env of Q168.a2 (HIV-1)
[27] = target: HIV-1 Env of 96ZM651.02 (HIV-1)
[28] = target: HIV-1 Env of TRO.11 (HIV-1)
[29] = target: HIV-1 Env of BG505.w6m (HIV-1)
[30] = target: HIV-1 Env of REJO.67 (HIV-1)
[31] = target: HIV-1 Env of CAP256.PI (HIV-1)
[32] = target: HIV-1 Env of CAP45.G3 (HIV-1)
[33] = target: HIV-1 Env of Q769.d22 (HIV-1)
[34] = target: HIV-1 Env of CAP256.SU (HIV-1)
[35] = target: HIV-1 Env of CAP210.E8 (HIV-1)
[36] = target: HIV-1 Env of ZM135.10a (HIV-1)
[37] = target: HIV-1 Env of PVO.04 (HIV-1)
[38] = target: HIV-1 Env of 191821.E6.1 (HIV-1)
[39] = target: HIV-1 Env of RHPA.7 (HIV-1)
[40] = target: HIV-1 Env of DU172.17 (HIV-1)
[41] = target: HIV-1 Env of 3016.V5.c36 (HIV-1)
[42] = target: HIV-1 Env of Q259.d2.17 (HIV-1)
[43] = target: HIV-1 Env of THRO.18 (HIV-1)
[44] = target: HIV-1 Env of ZM53.12 (HIV-1)
[45] = target: HIV-1 Env of 6405.v4.c34 (HIV-1)
[46] = target: HIV-1 Env of CAP244.D3 (HIV-1)

B1: CAP256-VRC26.08 (antibody, V domains shown)
VH: EVQLVESGGGVVQPGRSLTLSCAASQFTFSNYGMHWVRQAPGKGLEWVASVSNDGTKKYHGDSVWGRFTISRDNSKNTLFLQMSSLRAEDTAVYFCVRDQREDECEEWWSDYYDFGRELPCRKFRGLGLAGIFDIWGHGTMVTVSS
VL: QSALTQPPSVSAAPGQKVTISCSGNSSNIGNNFVSWYQQVPGTAPKLLLYETYRRPSGIPDRFSGSKSGTSATLAITGLQTGDEADYYCTVWGVRKGVGAVFGTGTKVTVLG
Q: How did the “neutralization IC50” value [1] turn out when B1 was run?
A: Its value is 40.4 µg/mL.

Q: What about the “neutralization IC50” value [2] of the same binder?
A: Its value is greater than 50 µg/mL.

Q: What about the “neutralization IC50” value [3] of the same binder?
A: Its value is 31.7 µg/mL.

Q: What about the “neutralization IC50” value [4] of the same binder?
A: The value was 0.008 µg/mL.

Q: What about the “neutralization IC50” value [5] of the same binder?
A: The value was 0.076 µg/mL.

Q: What about the “neutralization IC50” value [6] of the same binder?
A: Its value is 13.3 µg/mL.

Q: What about the “neutralization IC50” value [7] of the same binder?
A: The value was greater than 50 µg/mL.

Q: And the “neutralization IC50” value [8]?
A: Its value is greater than 50 µg/mL.

Q: And the “neutralization IC50” value [9]?
A: The value was 0.059 µg/mL.

Q: What about the “neutralization IC50” value [10] of the same binder?
A: Its value is greater than 50 µg/mL.

Q: What about the “neutralization IC50” value [11] of the same binder?
A: Its value is greater than 50 µg/mL.

Q: And the “neutralization IC50” value [12]?
A: The value was 0.003 µg/mL.

Q: And the “neutralization IC50” value [13]?
A: The value was 0.012 µg/mL.

Q: And the “neutralization IC50” value [14]?
A: The value was greater than 50 µg/mL.

Q: What about the “neutralization IC50” value [15] of the same binder?
A: The value was greater than 50 µg/mL.

Q: What about the “neutralization IC50” value [16] of the same binder?
A: The value was 1.09 µg/mL.

Q: What about the “neutralization IC50” value [17] of the same binder?
A: Its value is greater than 50 µg/mL.

Q: And the “neutralization IC50” value [18]?
A: Its value is greater than 50 µg/mL.

Q: What about the “neutralization IC50” value [19] of the same binder?
A: Its value is 0.969 µg/mL.

Q: And the “neutralization IC50” value [20]?
A: The value was 0.008 µg/mL.

Q: What about the “neutralization IC50” value [21] of the same binder?
A: Its value is greater than 50 µg/mL.

Q: And the “neutralization IC50” value [22]?
A: The value was greater than 50 µg/mL.

Q: What about the “neutralization IC50” value [23] of the same binder?
A: The value was greater than 50 µg/mL.

Q: What about the “neutralization IC50” value [24] of the same binder?
A: Its value is greater than 50 µg/mL.

Q: What about the “neutralization IC50” value [25] of the same binder?
A: The value was greater than 50 µg/mL.

Q: What about the “neutralization IC50” value [26] of the same binder?
A: Its value is 0.256 µg/mL.

Q: And the “neutralization IC50” value [27]?
A: Its value is 2.82 µg/mL.

Q: What about the “neutralization IC50” value [28] of the same binder?
A: The value was greater than 50 µg/mL.

Q: And the “neutralization IC50” value [29]?
A: Its value is 0.143 µg/mL.

Q: What about the “neutralization IC50” value [30] of the same binder?
A: Its value is greater than 50 µg/mL.

Q: And the “neutralization IC50” value [31]?
A: Its value is greater than 50 µg/mL.

Q: And the “neutralization IC50” value [32]?
A: Its value is 4.69 µg/mL.

Q: What about the “neutralization IC50” value [33] of the same binder?
A: The value was greater than 50 µg/mL.

Q: And the “neutralization IC50” value [34]?
A: Its value is 0.003 µg/mL.

Q: What about the “neutralization IC50” value [35] of the same binder?
A: Its value is 0.006 µg/mL.

Q: What about the “neutralization IC50” value [36] of the same binder?
A: The value was greater than 50 µg/mL.

Q: And the “neutralization IC50” value [37]?
A: The value was 11.8 µg/mL.

Q: What about the “neutralization IC50” value [38] of the same binder?
A: The value was 0.37 µg/mL.

Q: And the “neutralization IC50” value [39]?
A: The value was greater than 50 µg/mL.

Q: And the “neutralization IC50” value [40]?
A: The value was greater than 50 µg/mL.

Q: And the “neutralization IC50” value [41]?
A: The value was 0.013 µg/mL.

Q: What about the “neutralization IC50” value [42] of the same binder?
A: Its value is 0.009 µg/mL.

Q: What about the “neutralization IC50” value [43] of the same binder?
A: The value was greater than 50 µg/mL.

Q: What about the “neutralization IC50” value [44] of the same binder?
A: The value was 0.004 µg/mL.

Q: And the “neutralization IC50” value [45]?
A: The value was greater than 50 µg/mL.

Q: And the “neutralization IC50” value [46]?
A: The value was greater than 50 µg/mL.
